From IntAct's records for PubMed 22817896

B1: Receptor-interacting serine/threonine-protein kinase 1 (Homo sapiens), Q13546 (parent)
chain: MQPDMSLNVIKMKSSDFLESAELDSGGFGKVSLCFHRTQGLMIMKTVYKGPNCIEHNEALLEEAKMMNRLRHSRVVKLLGVIIEEGKYSLVMEYMEKGNLMHVLKAEMSTPLSVKGRIILEIIEGMCYLHGKGVIHKDLKPENILVDNDFHIKIADLGLASFKMWSKLNNEEHNELREVDGTAKKNGGTLYYMAPEHLNDVNAKPTEKSDVYSFAVVLWAIFANKEPYENAICEQQLIMCIKSGNRPDVDDITEYCPREIISLMKLCWEANPEARPTFPGIEEKFRPFYLSQLEESVEEDVKSLKKEYSNENAVVKRMQSLQLDCVAVPSSRSNSATEQPGSLHSSQGLGMGPVEESWFAPSLEHPQEENEPSLQSKLQDEANYHLYGSRMDRQTKQQPRQNVAYNREEERRRRVSHDPFAQQRPYENFQNTEGKGTAYSSAASHGNAVHQPSGLTSQPQVLYQNNGLYSSHGFGTRPLDPGTAGPRVWYRPIPSHMPSLHNIPVPETNYLGNTPTMPFSSLPPTDESIKYTIYNSTGIQIGAYNYMEIGGTSSSLLDSTNTNFKEEPAAKYQAIFDNTTSLTDKHLDPIRENLGKHWKNCARKLGFTQSQIDEIDHDYERDGLKEKVYQMLQKWVMREGIKGATVGKLAQALHQCSRIDLLSSLIYVSQN
B2: Receptor-interacting serine/threonine-protein kinase 3 (Homo sapiens), Q9Y572 (parent)
chain: MSCVKLWPSGAPAPLVSIEELENQELVGKGGFGTVFRAQHRKWGYDVAVKIVNSKAISREVKAMASLDNEFVLRLEGVIEKVNWDQDPKPALVTKFMENGSLSGLLQSQCPRPWPLLCRLLKEVVLGMFYLHDQNPVLLHRDLKPSNVLLDPELHVKLADFGLSTFQGGSQSGTGSGEPGGTLGYLAPELFVNVNRKASTASDVYSFGILMWAVLAGREVELPTEPSLVYEAVCNRQNRPSLAELPQAGPETPGLEGLKELMQLCWSSEPKDRPSFQECLPKTDEVFQMVENNMNAAVSTVKDFLSQLRSSNRRFSIPESGQGGTEMDGFRRTIENQHSRNDVMVSEWLNKLNLEEPPSSVPKKCPSLTKRSRAQEEQVPQAWTAGTSSDSMAQPPQTPETSTFRNQMPSPTSTGTPSPGPRGNQGAERQGMNWSCRTPEPNPVTGRPLVNIYNCSGVQVGDNNYLTMQQTTALPTWGLAPSGKGRGLQHPPPVGSQEGPKDPEAWSRPQGWYNHSGK

Variants of: B1
Details: with ripk3_human RIPK3, Q9Y572

Row | effect of a mutation on the interaction | Variant
1 | decreasing interaction strength | I539D
2 | decreasing interaction strength | G542D
3 | decreasing interaction strength | Q540D
4 | decreasing interaction strength | N545D
5 | decreasing interaction strength | I541D
6 | decreasing interaction strength | Y544D
7 | decreasing interaction strength | A543D

Variants of: B2
Details: with ripk1_human RIPK1, Q13546

Row | effect of a mutation on the interaction | Variant
8 | decreasing interaction strength | V460D
9 | decreasing interaction strength | G461D
10 | decreasing interaction strength | G457D
11 | decreasing interaction strength | V458D
12 | decreasing interaction strength | V458E;V460E
13 | decreasing interaction strength | D462K
14 | decreasing interaction strength | S456D
15 | decreasing interaction strength | Q459D

Variants of: B2
Details: with ripk1_human RIPK1, Q13546
Remark: another data set of the same source

Row | effect of a mutation on the interaction | Variant
16 | decreasing interaction strength | V460P
17 | decreasing interaction strength | G461P
18 | decreasing interaction strength | V458P
19 | decreasing interaction strength | Q459P
